Source: patent US20200291070A1
Numbered stars: 1 amine (or outer) side, 2 acyl side, 3 side chain; on linkers, the order of the positions; unused ones are H or OH. Bridge positions count the residues as written; N and C are the ends. Square brackets hold non-standard residues; d marks the D form. Ends that are not written are not given here. Tm = trimesic acid, bicyclized on Tm at the N-terminus; Trimesoyl = O=C(c1cc(C(=O)[*:2])cc(C(=O)[*:3])c1)[*:1]; 2Nal = N[C@@H](Cc1ccc2ccccc2c1)C(=O)O; Dap = NC[C@H](N)C(=O)O; βAla = NCCC(=O)O

What was measured:
[1] = target: Recombinant GST-NEMO (from plasmid pGEX4T3-NEMO(1-196)) (UniProt Q9Y6K9); experiment: HTRF competition against biotin-IKKβKK/RR(701-745) on GST-NEMO
Sequence of Recombinant GST-NEMO (from plasmid pGEX4T3-NEMO(1-196)) (Q9Y6K9 1-196): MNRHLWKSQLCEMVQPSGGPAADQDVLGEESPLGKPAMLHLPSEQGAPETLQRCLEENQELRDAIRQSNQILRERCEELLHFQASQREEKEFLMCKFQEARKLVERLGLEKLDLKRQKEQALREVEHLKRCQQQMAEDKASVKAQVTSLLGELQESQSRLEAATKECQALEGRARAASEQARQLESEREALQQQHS

[2] = target: Recombinant GST-NEMO (from plasmid pGEX4T3-NEMO(1-196)) (UniProt Q9Y6K9); experiment: HTRF competition IC50 against peptide 7; upper end tied to peptide 12 by Table 5 (3.0 vs 1.0 µM)
[3] = target: Recombinant GST-NEMO (from plasmid pGEX4T3-NEMO(1-196)) (UniProt Q9Y6K9); experiment: HTRF competition IC50, peptide 7 against peptide 6
[4] = target: Recombinant GST-NEMO (from plasmid pGEX4T3-NEMO(1-196)) (UniProt Q9Y6K9); experiment: HTRF competition IC50 against peptide 7; lower end tied to peptide 13 by Table 5 (1.7 vs 1.0 µM)
[5] = target: Recombinant GST-NEMO (from plasmid pGEX4T3-NEMO(1-196)) (UniProt Q9Y6K9); experiment: HTRF competition IC50 against peptide 7
[6] = target: Recombinant GST-NEMO (from plasmid pGEX4T3-NEMO(1-196)) (UniProt Q9Y6K9); experiment: HTRF competition against biotin-IKKβKK/RR(701-745) on GST-NEMO; lower end tied to peptide 2 by the same paragraph

| IC50 [1] [nM] | Molecule | also measured |
| --- | --- | --- |
| 1200 | peptide 19, Tm(GWIYA)Δ(FΦRrRΔ)-BBK (as printed) |  |
| 2300 | Trimesoyl-[dA]GWIY[Dap]F[2Nal]R[dR]R[Dap][βAla][βAla]K (linker N-6-12 via Tm) [peptide 10, Tm(aGWIY)Δ(FΦRrRΔ)-BBK] |  |
| 2800 | Trimesoyl-GWIAA[Dap]F[2Nal]R[dR]R[Dap][βAla][βAla]K (linker N-6-12 via Tm) [peptide 14, Tm(GWIAA)Δ(FΦRrRΔ)-BBK] |  |
| 3000 | Trimesoyl-GAIYA[Dap]F[2Nal]R[dR]R[Dap][βAla][βAla]K (linker N-6-12 via Tm) [peptide 12, Tm(GAIYA)Δ(FΦRrRΔ)-BBK] | fold decrease in potency (against peptide 7) [2]: 2 to 3 fold |
| 2200 | Trimesoyl-AGWIY[Dap]F[2Nal]R[dR]R[Dap][βAla][βAla]K (linker N-6-12 via Tm) [peptide 9, Tm(AGWIY)Δ(FΦRrRΔ)-BBK] |  |
| 1000 | Trimesoyl-GWIYA[Dap]F[2Nal]R[dR]R[Dap][βAla][βAla]K (linker N-6-12 via Tm) [peptide 7, Tm(GWIYA)Δ(FΦRrRΔ)-BBK] | fold increase in binding affinity (against peptide 6) [3]: 5.9 fold |
| 1200 | Trimesoyl-AWIYA[Dap]F[2Nal]R[dR]R[Dap][βAla][βAla]K (linker N-6-12 via Tm) [peptide 11, Tm(AWIYA)Δ(FΦRrRΔ)-BBK] |  |
| 2100 | Trimesoyl-GWIYA[Dap]F[2Nal]R[dA]R[Dap][βAla][βAla]K (linker N-6-12 via Tm) [peptide 18, Tm(GWIYA)Δ(FΦRaRΔ)-BBK] |  |
| 1700 | Trimesoyl-GWAYA[Dap]F[2Nal]R[dR]R[Dap][βAla][βAla]K (linker N-6-12 via Tm) [peptide 13, Tm(GWAYA)Δ(FΦRrRΔ)-BBK] | fold decrease in potency (against peptide 7) [4]: 2 to 3 fold |
| 1100 | Trimesoyl-GWIYA[Dap]F[2Nal]A[dR]R[Dap][βAla][βAla]K (linker N-6-12 via Tm) [peptide 17, Tm(GWIYA)Δ(FΦArRΔ)-BBK] |  |
| 16000 | Trimesoyl-GAIAA[Dap]F[2Nal]R[dR]R[Dap][βAla][βAla]K (linker N-6-12 via Tm) [peptide 20, Tm(GAIAA)Δ(FΦRrRΔ)-BBK] | fold lower NEMO-binding affinity (against peptide 7) [5]: 16 fold |
| 1900 | Trimesoyl-GWIYA[Dap]A[2Nal]R[dR]R[Dap][βAla][βAla]K (linker N-6-12 via Tm) [peptide 15, Tm(GWIYA)Δ(AΦRrRΔ)-BBK] |  |
| 3400 | Trimesoyl-GWIY[Dap]F[2Nal]RRR[Dap][βAla][βAla]K (linker N-5-11 via Tm) [peptide 2, Tm(GWIY)Δ(FΦRRRΔ)-BBK] | IC50 [6]: 3400 to 28000 nM |
| 5900 | Trimesoyl-GWIY[Dap]F[2Nal]R[dR]R[Dap][βAla][βAla]K (linker N-5-11 via Tm) [peptide 6, Tm(GWIY)Δ(FΦRrRΔ)-BBK] |  |
| 1500 | Trimesoyl-GWIY[Dap]F[2Nal]RRRR[Dap][βAla][βAla]K (linker N-5-12 via Tm) [peptide 3, Tm(GWIY)Δ(FΦRRRRΔ)-BBK] |  |
|  | Trimesoyl-GAAAA[Dap]F[2Nal]R[dR]R[Dap][βAla][βAla]K (linker N-6-12 via Tm) [peptide 21, Tm(GAAAA)Δ(FΦRrRΔ)-BBK] | fold lower NEMO-binding affinity (against peptide 7) [5]: > 100 fold |
| 2900 | Trimesoyl-GWIY[dA][Dap]F[2Nal]R[dR]R[Dap][βAla][βAla]K (linker N-6-12 via Tm) [peptide 8, Tm(GWIYa)Δ(FΦRrRΔ)-BBK] |  |
